Results as given in article PMC8934283 (Nature, 2022).

Key:
Experiment in all cases: cryo-EM structure
ribosomal protein uS5 = ribosomal protein uS5 (E. coli, UniProt P0A7W1 1-166)
ribosomal protein uS3 = ribosomal protein uS3 (E. coli, UniProt P0A7V3 1-233)
ribosomal protein uS21 = ribosomal protein uS21 (E. coli, UniProt P68679 1-71)
ribosomal protein uS11 = ribosomal protein uS11 (E. coli, UniProt P0A7R9 1-129)
ribosomal protein uS2 = ribosomal protein uS2 (E. coli, UniProt P0A7V0 1-241)

Measured: binding result

B1: E. coli SmrB inactive mutant (99DLH101-ALA) (enzyme)
chain: MKKKTTLSEEDQALFRQLMAGTRKIKQDTIVHRPQRKKISEVPVKRLIQEQADASHYFSDEFQPLLNTEGPVKYVRPDVSHFEAKKLRRGDYSPELFLALAGLTQLQAKQELGALIAACRREHVFCACVMHGHGKHILKQQTPLWLAQHPHVMAFHQAPKEYGGDAALLVLIEVEEWLPPEL
binds: all assays above
